Experimental data reported in the supplement of paper PMC11246515.
± gives the standard deviation of the averaged measurements.

Test: total protein half-life in vivo (active degradation + dilution); higher = more stable protein
[1] = E. coli NCM3722 delta-clpP delta-lon delta-hslV, growth: N-lim chemostat, doubling time 6 h
[2] = E. coli NCM3722 delta-clpP, growth: N-lim chemostat, doubling time 6 h
[3] = E. coli NCM3722 delta-hslV, growth: N-lim chemostat, doubling time 6 h
[4] = E. coli NCM3722 delta-lon, growth: N-lim chemostat, doubling time 6 h
[5] = E. coli NCM3722 delta-smpB, growth: N-lim chemostat, doubling time 6 h
[6] = wild type E. coli NCM3722, growth: C-lim chemostat, doubling time 3 h
[7] = wild type E. coli NCM3722, growth: C-lim chemostat, doubling time 6 h
[8] = wild type E. coli NCM3722, growth: C-lim chemostat, doubling time 12 h
[9] = wild type E. coli NCM3722, growth: N-lim chemostat, doubling time 6 h
[10] = wild type E. coli NCM3722, growth: N-lim chemostat, doubling time 12 h
[11] = wild type E. coli NCM3722, growth: P-lim chemostat, doubling time 6 h
[12] = wild type E. coli NCM3722, growth: P-lim chemostat, doubling time 12 h

Sequence	total protein half-life in vivo [1] [h]	total protein half-life in vivo [2] [h]	total protein half-life in vivo [3] [h]	total protein half-life in vivo [4] [h]	total protein half-life in vivo [5] [h]	total protein half-life in vivo [6] [h]	total protein half-life in vivo [7] [h]	total protein half-life in vivo [8] [h]	total protein half-life in vivo [9] [h]	total protein half-life in vivo [10] [h]	total protein half-life in vivo [11] [h]	total protein half-life in vivo [12] [h]
MNPIAVTLLTGFLGAGKTTLLRHILNEQHGYKIAVIENEFGEVSVDDQLIGDRATQIKTLTNGCICCSRSNELEDALLDLLDNLDKGNIQFDRLVIECTGMADPGPIIQTFFSHEVLCQRYLLDGVIALVDAVHADEQMNQFTIAQSQVGYADRILLTKTDVAGEAEKLHERLARINARAPVYTVTHGDIDLGLLFNTNGFMLEENVVSTKPRFHFIADKQNDISSIVVELDYPVDISEVSRVMENLLLESADKLLRYKGMLWIDGEPNRLLFQGVQRLYSADWDRPWGDEKPHSTMVFIGIQLPEEEIRAAFAGLRK	5.11 ± 1.4	3.49 ± 0.12	3.471 ± 0.032	3.97 ± 0.38	3.65 ± 0.28	2.876 ± 0.022	5.139 ± 0.017	8.715 ± 0.082	3.52 ± 0.3	6.14 ± 0.095	4.95 ± 0.4	10 ± 0.33
MNPLLTDSRRQALRSASHWYAVLSGERVSPQQEARWQQWYEQDQDNQWAWQQVENLRNQLGGVPGDVASRALHDTRLTRRHVMKGLLLLLGAGGGWQLWQSETGEGLRADYRTAKGTVSRQQLEDGSLLTLNTQSAADVRFDAHQRTVRLWYGEIAITTAKDALQRPFRVLTRQGQLTALGTEFTVRQQDNFTQLDVQQHAVEVLLASAPAQKRIVNAGESLQFSASEFGAVKPLDDESTSWTKDILSFSDKPLGEVIATLTRYRNGVLRCDPAVAGLRLSGTFPLKNTDAILNVIAQTLPVKIQSITRYWINISPL	–	–	–	–	0.672	–	–	–	–	–	–	–
MNPQLLRVTNRIIERSRETRSAYLARIEQAKTSTVHRSQLACGNLAHGFAACQPEDKASLKSMLRNNIAIITSYNDMLSAHQPYEHYPEIIRKALHEANAVGQVAGGVPAMCDGVTQGQDGMELSLLSREVIAMSAAVGLSHNMFDGALFLGVCDKIVPGLTMAALSFGHLPAVFVPSGPMASGLPNKEKVRIRQLYAEGKVDRMALLESEAASYHAPGTCTFYGTANTNQMVVEFMGMQLPGSSFVHPDSPLRDALTAAAARQVTRMTGNGNEWMPIGKMIDEKVVVNGIVALLATGGSTNHTMHLVAMARAAGIQINWDDFSDLSDVVPLMARLYPNGPADINHFQAAGGVPVLVRELLKAGLLHEDVNTVAGFGLSRYTLEPWLNNGELDWREGAEKSLDSNVIASFEQPFSHHGGTKVLSGNLGRAVMKTSAVPVENQVIEAPAVVFESQHDVMPAFEAGLLDRDCVVVVRHQGPKANGMPELHKLMPPLGVLLDRCFKIALVTDGRLSGASGKVPSAIHVTPEAYDGGLLAKVRDGDIIRVNGQTGELTLLVDEAELAAREPHIPDLSASRVGTGRELFSALREKLSGAEQGATCITF [P0ADF6]	3.58 ± 0.62	3.24	3.51 ± 0.99	3.46	2.97 ± 0.12	3.07 ± 0.33	–	8.61	2.98 ± 0.2	4.531 ± 0.012	5.33 ± 0.3	9.86 ± 0.35
MNQRNASMTVIGAGSYGTALAITLARNGHEVVLWGHDPEHIATLERDRCNAAFLPDVPFPDTLHLESDLATALAASRNILVVVPSHVFGEVLRQIKPLMRPDARLVWATKGLEAETGRLLQDVAREALGDQIPLAVISGPTFAKELAAGLPTAISLASTDQTFADDLQQLLHCGKSFRVYSNPDFIGVQLGGAVKNVIAIGAGMSDGIGFGANARTALITRGLAEMSRLGAALGADPATFMGMAGLGDLVLTCTDNQSRNRRFGMMLGQGMDVQSAQEKIGQVVEGYRNTKEVRELAHRFGVEMPITEEIYQVLYCGKNAREAALTLLGRARKDERSSH [P0A6S7]	5.183 ± 0.013	5.35 ± 0.8	4.8 ± 0.097	4.88 ± 0.27	4.73 ± 0.34	3.3022 ± 0.00023	5.8 ± 0.063	10.8 ± 1.8	4.99 ± 0.28	8.16	5.73 ± 0.15	12.7 ± 2.1
MNQSYGRLVSRAAIAATAMASLLLLIKIFAWWYTGSVSILAALVDSLVDIGASLTNLLVVRYSLQPADDNHSFGHGKAESLAALAQSMFISGSALFLFLTGIQHLISPTPMTDPGVGVIVTIVALICTIILVSFQRWVVRRTQSQAVRADMLHYQSDVMMNGAILLALGLSWYGWHRADALFALGIGIYILYSALRMGYEAVQSLLDRALPDEERQEIIDIVTSWPGVSGAHDLRTRQSGPTRFIQIHLEMEDSLPLVQAHMVADQVEQAILRRFPGSDVIIHQDPCSVVPREGKRSMLS	–	–	–	–	–	–	–	14.3	6.34	–	5.52	–
MNQTLLSSFGTPFERVENALAALREGRGVMVLDDEDRENEGDMIFPAETMTVEQMALTIRHGSGIVCLCITEDRRKQLDLPMMVENNTSAYGTGFTVTIEAAEGVTTGVSAADRITTVRAAIADGAKPSDLNRPGHVFPLRAQAGGVLTRGGHTEATIDLMTLAGFKPAGVLCELTNDDGTMARAPECIEFANKHNMALVTIEDLVAYRQAHERKAS [P0A7J0]	5.39 ± 0.59	4.61 ± 0.68	1.27 ± 0.23	1.22 ± 0.28	1.02 ± 0.1	1.2 ± 0.25	1.2 ± 0.21	1.35 ± 0.13	1.291 ± 0.0046	1.52 ± 0.086	0.987	1.82 ± 1.1
MNQVAVVIGGGQTLGAFLCHGLAAEGYRVAVVDIQSDKAANVAQEINAEYGESMAYGFGADATSEQSVLALSRGVDEIFGRVDLLVYSAGIAKAAFISDFQLGDFDRSLQVNLVGYFLCAREFSRLMIRDGIQGRIIQINSKSGKVGSKHNSGYSAAKFGGVGLTQSLALDLAEYGITVHSLMLGNLLKSPMFQSLLPQYATKLGIKPDQVEQYYIDKVPLKRGCDYQDVLNMLLFYASPKASYCTGQSINVTGGQVMF	4.14	–	–	–	–	1.19 ± 0.41	–	1.43	–	–	–	–
MNRTILVPIDISDSELTQRVISHVEEEAKIDDAEVHFLTVIPSLPYYASLGLAYSAELPAMDDLKAEAKSQLEEIIKKFKLPTDRVHVHVEEGSPKDRILELAKKIPAHMIIIASHRPDITTYLLGSNAAAVVRHAECSVLVVR	5.69 ± 1.3	4.76 ± 0.38	6.17 ± 2.1	3.98 ± 0.51	4.47 ± 0.24	3.61 ± 0.042	5.75 ± 0.62	10.3 ± 1.1	4.7255 ± 0.0038	7.83 ± 0.48	5.521 ± 0.026	9.62 ± 1
